By AUC is commonly meant the area under the concentration-time curve, a measure of exposure. Read a low AUC as low exposure.

This series can be described thus: ADC in vivo stability assay in mice (serum ELISA for ADC and total antibody). Set-up: species or system Balb/c mice. Particulars: 10 mg/kg via the tail vein. As to the method: • 1. The antibody-drug conjugate was injected into Balb/c mice (Vital River) via the tail vein at a dose of 10 mg/kg, and blood was collected at 0.083 h, 0.5 h, 2 h, 6 h, 24 h, 48 h, 96 h, 168 h, 336 h, and 504 h after administration (FIG. 10A). The blood samples were left to stand at room temperature and centrifuged to collect serum, so as to test the stability of the drug in the mice. • 2. Antibody detection: TROP2 protein (ACRO, cat: TR2-H5223, lot: 2573-2316F1-1B9) was coated and incubated overnight at 4 °C (FIG. 10A). The coating protein solution was removed, and 300 µL of wash buffer (0.05% Tween 20) was added to each well for repeated washing 3 times. 200 µL of blocking solution (5% skim milk powder) was added to each well, and the plate was blocked at room temperature for 2 h. The blocking solution was discarded, and the plate was washed 3 times with 300 µL of wash buffer per well. The diluted standards, quality control samples, and mouse serum samples to be tested were added to the well plate and incubated at room temperature for 2 h. The sample solution was discarded, and 300 µL of wash buffer was added to each well for 3 times of repeated washing. Anti-hFc-HRP (BETHYL, cat:A80-104P, lot: 97) was diluted 20000-fold and added at 100 µL/well, and the plate was incubated at room temperature for 1 h. The liquid was removed, and 300 µL of wash buffer was added to each well for 6 times of repeated washing. 100 µL of TMB substrate (Solarbio, cat:PR1200, lot: 20230418) was added to each well, and the color development was performed at room temperature for 5-10 min in the dark. 50 µL of ELISA stop solution (Beijing Solarbio C1058 20190620) was added to each well, medium-speed shaking for 10 s, within 30 min, the OD values at 450 nm and 620 nm were read on a microplate reader (USA, Thermo Multiskan FC AS-A1-008). • 3. Antibody-drug conjugate ADC detection: an anti-payload antibody 18E7C9 (innovent, lot: 20220424) was coated and incubated at 4 °C overnight (FIG. 10A). The coating protein solution was discarded, and 300 µL of wash buffer (0.05% Tween 20) was added to each well for 3 repeated washes. 200 µL of blocking solution (5% skim milk powder) was added to each well, and the plate was blocked at room temperature for 2 h. The blocking solution was discarded, and the plate was washed 3 times with 300 µL of wash buffer per well. The diluted standards, quality control samples, and mouse serum samples to be tested were added to the well plate and incubated at room temperature for 2 h. The sample solution was discarded, and 300 µL of wash buffer was added to each well for 3 times of repeated washing. Biotinylated TROP2 protein (ACRO, cat: TR2-H82E5, lot:BV3055-91PF1-ZC) was added to the microplate and incubated at room temperature for 2 h. The liquid was removed, and 300 µL of wash buffer was added to each well for 3 times of repeated washing. SA-HRP (Biolegend, cat:405210, lot: B339457) was diluted 20,000-fold and added at 100 µL/well, and the plate was incubated at room temperature for 1 h. The liquid was removed, and 300 µL of wash buffer was added to each well for 6 times of repeated washing. 100 µL of TMB substrate (Solarbio, cat:PR1200, lot: 20230418) was added to each well, and the color development was performed at room temperature for 5-10 min in the dark. 50 µL of ELISA stop solution (Beijing Solarbio C1058 20190620) was added to each well, medium-speed shaking for 10 s, within 30 min, the OD values at 450 nm and 620 nm were read on a microplate reader (USA, Thermo Multiskan FC AS-A1-008).
On the technique in general: In an ELISA, binding on a coated surface is turned into a signal by an enzyme label.

B1: hTINA1-DXd: control ADC: antibody hTINA1 conjugated with Linker-DXd, average DAR 4.3; TROP2-ADC from Daiichi Sankyo (conjugate, chains of the INN, looked up)
VH: QVQLVQSGAEVKKPGASVKVSCKASGYTFTTAGMQWVRQAPGQGLEWMGWINTHSGVPKYAEDFKGRVTISADTSTSTAYLQLSSLKSEDTAVYYCARSGFGSSYWYFDVWGQGTLVTVSS
VL: DIQMTQSPSSLSASVGDRVTITCKASQDVSTAVAWYQQKPGKAPKLLIYSASYRYTGVPSRFSGSGSGTDFTLTISSLQPEDFAVYYCQQHYITPLTFGQGTKLEIK
modifications: deruxtecan (Linker-DXd), DAR 4.3
notes: control ADC: antibody hTINA1 conjugated with Linker-DXd, average DAR 4.3; TROP2-ADC from Daiichi Sankyo
B1: under “Analysis Type ADC”, the exposure (AUC) was found to be 12053.60 µg·h/mL, the Cl_obs was 19.9 mL/day/kg and the T-half is on record as 154.59 h. Under “Analysis Type Total-Ab”, this molecule displayed an AUC of 35805.22 µg·h/mL, a Cl_obs of 6.72 mL/day/kg and a T-half of 374.37 h.
